How the values were obtained:
normal human tissues = assay: Tissue cross-reactivity study, frozen tissue sections; format: binding; set-up: key to tissue staining: 1+=weak staining; 2+=moderate staining; 3+=strong staining; 4+=intense staining; Neg=negative; freq=frequent (staining in >75%-100% of cells); occ=occasional (staining in >25%-50% of cells); rare refers to staining in 1-5% of cells; details: for tissue staining: Human, 1-3 μg/ml
Method: Tissue cross-reactivity studies were conducted to assess the binding profile (both on- and potential off-target binding) to human and relevant species used in nonclinical safety testing. Humanized anti-STn antibodies were examined for binding to a panel of normal human, rat, mouse, and cynomolgus monkey tissues. The study was conducted on […] normal frozen tissue sections at 1-3 μg/ml: heart, brain, kidney, stomach, lung, small intestines, colon, liver, pancreas, spleen and bone marrow. The positive control was a human pancreatic neoplasm that contained STn positive cancer cells and the negative control was normal stromal cells contained within the same specimen. Staining across all normal tissues was restricted to the cytoplasm. Additional analyses were conducted without primary antibody or using isotype control IgG as negative controls.
Antibodies were also found to cross react with similar types of tissue from Cynomolgus monkey (see Table 17) and rat (not shown).

[1] = test system: array glycans (AcSTn, GcSTn, Tn and others); assay: Glycan array analysis; format: binding; set-up: key: Group 1: capable of binding AcSTn and GcSTn, if they bind to glycans 5, 6, 23 and 24; Group 2: capable of binding STn as well as some related structures that include an O-linkage to serine or threonine, if they bind to glycans 5, 6, 23, 24, 27 and 31; Group 3: capable of binding STn, but may also bind a broader set of related structures) if they bind glycans 5, 6, 23, 24, 17, 3, 19, 37, 27 and 31; Group 4: capable of binding to both AcSTn and GcSTn as well as the un-sialylated Tn antigen (therefore having broader specificity) if they bind to glycans 5, 6, 23, 24 and 47
Method: Optimized glycan arrays are utilized to test antibody affinity and specificity for multiple glycans in a single experiment. Glycan arrays include 71 chemically synthesized and well-defined glycans, most of which are Neu5Ac and Neu5Gc glycan pairs.
300 ml of epoxy blocking buffer is prepared by combining 15 ml of 2 M Tris buffer (pH 8) with 0.9 ml of 16.6 M ethanolamine and 284.1 ml of distilled water. The solution is brought to a final pH of 9.0 with HCl. The solution is filtered using a […] nitrocellulose membrane. The epoxy buffer solution as well as 1 L of distilled water are pre-warmed to 50° C. Glass slides are arranged in a slide holder and quickly submerged in a staining tub with the warmed epoxy blocking buffer. Slides are incubated in the epoxy blocking buffer for 1 hour at 50° C. with periodic shaking to deactivate epoxy binding sites. Next, slides are rinsed and blocked with PBS with 1% OVA at 25° C. for one hour. Serum samples with polyclonal antibodies (1:1000) or purified monoclonal antibodies (1 ug/mL), are diluted in PBS with 1% OVA and added to the glycan array for one hour at 25° C. After extensive washing, binding of antibodies are detected by incubating glycan microarray slides with Cy3-conjugated anti-mouse IgG (Jackson Immunoresearch, West Grove, Pa.) for one hour. Slides are then washed extensively, dried and scanned with a Genepix 4000B scanner (Laser at 100%; gain at 350; 10 μm pixels). Raw data from scanned images are extracted using the Genepix software and analysis of raw data is carried out.
Based on array analysis, antibodies are classified according to array glycan binding profile. Antibodies are classified as “Group 1” antibodies, capable of binding AcSTn and GcSTn, if they bind to glycans 5, 6, 23 and 24. Such antibodies are referred to as Pan-STn antibodies due to their ability to associate with a wider range of STn structures and the portion of STn indicated by the largest ellipse in FIG. 1A. […]

B1: hSIA101 (antibody, V domains shown)
VH: EVQLVQSGAEVKKPGASVKVSCKASGYTFTDHAIHWVRQAPGQGLEWMGYFSPGNDDIKYNEKFRGRVTMTADKSSSTAYMELRSLRSDDTAVYFCKRSLSTPYWGQGTLVTVSS
VL: DIVMTQSPDSLAVSLGERATINCKSSQSLLNRGNHKNYLTWYQQKPGQPPKLLIYWASTRESGVPDRFSGSGSGTDFTLTISSLQAEDVAVYYCQNDYTYPYTFGQGTKVEIK
staining of cerebrum, cerebellum, kidney and liver (normal human tissues): did not stain
staining of positive control tissue (pancreatic neoplasm) (normal human tissues): strong membrane staining
tissue staining (normal human tissues; Colon Epithelial Cells): 1+ freq (cytoplasm)
tissue staining (normal human tissues; Colon Vessel): Neg
tissue staining (normal human tissues; Heart Vessel): 2+ rare (cytoplasm)
tissue staining (normal human tissues; Lung Epithelium): Neg
tissue staining (normal human tissues; Pancreas Vessel): Neg
tissue staining (normal human tissues; Small Intestine Epithelial Cells): 2-4+ freq (cytoplasm)
tissue staining (normal human tissues; Spleen Vessel): 2-3+ freq (cytoplasm)
tissue staining (normal human tissues; Stomach Epithelial Cells): 2-3+ freq (cytoplasm)
tissue staining (normal human tissues; Stomach Vessel): Neg
cross-reactivity with normal human tissues (normal human tissues; among the three tested antibodies): lowest cross-reactivity
staining on cell membranes in any tissue (normal human tissues; normal tissues): No staining was observed
Array glycan binding profile [1]: Group 1

— patent US20230001007A1, “Glycan-Interacting Compounds and Methods of Use” (Seagen Inc., priority 2017, published 2023)
